From publication PMC8217502

How the values were obtained:
[1] = target: F1FO-ATP synthase (complex V) (P. falciparum); assay: native gel or EMSA; complexome profiling after method 3 only (nitrogen cavitation without saponin, larger amounts of parasites; samples ABS3D and GCT3D), digitonin, BN-PAGE 4-16%, stacking gel also analysed
[2] = target: F1FO-ATP synthase (complex V) (P. falciparum); assay: native gel or EMSA; high molecular mass (HMM) complexome profiles: GCT3D experiment repeated on a 3-16% BN gel, only the top part of the gel (Mr app. >1000 kDa) analysed; gametocytes, digitonin
[3] = target: cytochrome bc1 complex (CIII) (P. falciparum) (UniProt Q7HP03); assay: native gel or EMSA; complexome profiling: mitochondria-enriched fractions of mixed ABS parasites or stage V gametocytes (enrichment methods 1-3), solubilised with digitonin or DDM, BN-PAGE on 4-16% gradient gels, gel slices analysed by LC-MS/MS; comigration of iBAQ migration profiles

Substance: F1FO-ATP synthase (complex V)
- stoichiometry N [1]: 2
- stoichiometry N [2]: 2

Substance: cytochrome bc1 complex (CIII), Q7HP03 1-376; Q8I6U9 1-394; Q8IL75 1-355; Q8ILJ5 1-88; Q8IJS2 1-192; Q9NLB3 1-137; C0H4H6 1-96; Q8I2I2 1-484; Q8I3N3 1-534; Q8IBM6 1-79; A0A5K1K9E9 1-163; Q8IB13 1-54
- stoichiometry N [3]: 2
